Source: PMC9929655 (The Journal of Cell Biology, 2023)

T1: Sro7 (full length) (yeast, UniProt Q12038 1-1033)
T1 sequence: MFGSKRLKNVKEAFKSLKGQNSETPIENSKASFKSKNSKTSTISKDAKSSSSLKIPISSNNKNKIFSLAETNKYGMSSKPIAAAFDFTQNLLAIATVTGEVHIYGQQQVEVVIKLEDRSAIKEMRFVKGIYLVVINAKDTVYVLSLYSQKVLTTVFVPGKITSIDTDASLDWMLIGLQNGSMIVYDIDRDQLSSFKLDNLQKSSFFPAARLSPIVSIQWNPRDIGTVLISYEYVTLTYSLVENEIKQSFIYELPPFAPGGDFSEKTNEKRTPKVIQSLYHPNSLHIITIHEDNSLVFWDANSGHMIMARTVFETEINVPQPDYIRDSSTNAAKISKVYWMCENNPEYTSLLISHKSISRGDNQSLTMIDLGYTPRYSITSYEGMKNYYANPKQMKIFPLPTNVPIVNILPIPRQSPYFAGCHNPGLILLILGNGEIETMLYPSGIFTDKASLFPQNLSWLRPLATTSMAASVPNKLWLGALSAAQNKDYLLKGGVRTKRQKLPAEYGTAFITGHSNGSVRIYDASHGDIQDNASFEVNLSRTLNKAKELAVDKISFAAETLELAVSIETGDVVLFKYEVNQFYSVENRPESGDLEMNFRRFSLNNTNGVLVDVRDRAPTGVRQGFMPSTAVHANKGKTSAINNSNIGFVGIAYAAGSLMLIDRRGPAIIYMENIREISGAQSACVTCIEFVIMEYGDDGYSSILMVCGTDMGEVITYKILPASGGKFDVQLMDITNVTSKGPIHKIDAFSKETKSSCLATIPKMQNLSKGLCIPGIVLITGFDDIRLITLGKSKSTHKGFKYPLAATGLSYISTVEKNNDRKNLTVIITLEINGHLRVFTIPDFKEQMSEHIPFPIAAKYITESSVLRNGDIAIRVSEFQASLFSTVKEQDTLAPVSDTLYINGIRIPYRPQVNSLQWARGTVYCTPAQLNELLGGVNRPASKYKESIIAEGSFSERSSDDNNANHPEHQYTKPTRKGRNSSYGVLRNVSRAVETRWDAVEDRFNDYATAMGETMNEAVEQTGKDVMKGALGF

B1: C-terminally tagged GST-Sro7-NT (aa 1–79) (domain or fragment)
chain: MFGSKRLKNVKEAFKSLKGQNSETPIENSKASFKSKNSKTSTISKDAKSSSSLKIPISSNNKNKIFSLAETNKYGMSSK
B2: GST-Exo84 (aa 1–326) (domain or fragment)
chain: MVEFSLKKARNNWKHVKKSASSPAKQKTPPSPAKPKQKTKKNPYSDLKDPATSYTLPTINARERSRVATSMQRRLSIHNTNYAPPTLDYSMPLPDMPNMIVPNDNVDSSHNNSSFTTENESVSSKGPSNSLNLSTADLSLNDSSYNKVPARSAMRNTVNPSGSNDPFNNSTSLRKMLANPHFNAKDFVHDKLGNASAITIDKFTSNLTDLSIQVQEEVKLNINKSYNEIMTVNNDLNVAMLELKRVRANINDLNEVLDQCTKIAEKRLQLQDQIDQERQGNFNNVESHSNSPALLPPLKAGQNGNLMRRDRSSVLILEKFWDTELD
B3: His-tagged Sro7-NT (aa 1–90) (domain or fragment)
chain: MFGSKRLKNVKEAFKSLKGQNSETPIENSKASFKSKNSKTSTISKDAKSSSSLKIPISSNNKNKIFSLAETNKYGMSSKPIAAAFDFTQN

Tests used:
Assay in all cases: pull-down
[1] = target: His-tagged Exo84 (aa 1–326) (S. cerevisiae, UniProt P38261 1-326)
Sro7 (full length) = target: T1, Sro7 (full length)
GST-Exo84 (aa 1–326) = target: B2

## B1
[1]
  binding result: binds

## B2
Sro7 (full length)
  binding result: binds

## B3
GST-Exo84 (aa 1–326)
  binding result: binds
